± gives the uncertainty stated by the source.
Test: amyloid nucleation score (Sup35N fusion, yeast selection) (log enrichment); library NNK2; higher = more nucleation; inactive = no reads after selection
Procedure, shortened: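 On medium lacking adenine and uracil, psi-negative yeast expressing peptides of 20 random codons fused to Sup35N were grown 7 days at 30°C after a 24-hour induction with 100 μM copper sulfate. Illumina sequencing of input and output plasmid inserts gave the reads, and sequences under 100 input reads were excluded. The nucleation score is the DiMSum log enrichment of output over input reads, centred on the mode score of non-aggregating sequences.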
For LFLQGRNQLDTHWFCPACPM, the amyloid nucleation score was -0.727 ± 0.55. Substance LFNVMFRSLMVGWMYHENGL has an amyloid nucleation score of 0.525 ± 0.44. Substance LFSVLL has an amyloid nucleation score of -0.916 ± 1. For LFVYIFVVKVDF, the amyloid nucleation score was 0.959 ± 0.27. For LFYGNHWAPASWIWN, the amyloid nucleation score was 2.34 ± 0.15. Work on LGCICMR yielded an amyloid nucleation score of 4.09 ± 0.071. With LGDCVSNHSCLSVEHFDLNY the amyloid nucleation score was 4.92 ± 0.11. For LGDERDADQIPSGIYG, the amyloid nucleation score was 1.26 ± 0.27. With LGEIVHLTVDASIRSSDR the amyloid nucleation score was 5.13 ± 0.088. In the case of LGFDFSNVKRTGRVTFFDCM, the amyloid nucleation score is reported as -0.1 ± 0.35. For LGKFEA, the amyloid nucleation score was “inactive”. For LGLPNNGL, the amyloid nucleation score was -0.187 ± 0.55. For LGLRDELTVVVCWFRTYLIR, the amyloid nucleation score was 4.634 ± 0.044. With LGSDMRLRMTYCPKRCVRWH the amyloid nucleation score was 2.77 ± 0.14. In the case of LGSWR, the amyloid nucleation score is reported as -0.829 ± 1.1. LGYGWFNVLTYTTI showed an amyloid nucleation score of -0.209 ± 0.65. LGYIWLALRIVNCLDNGVPY gave an amyloid nucleation score of -1 ± 0.44. In the case of LHCYFFRLMCQSYDRDYKC, the amyloid nucleation score is reported as -0.249 ± 1. In the case of LHFSICMPTGCDVPPGDKGG, the amyloid nucleation score is reported as “inactive”. With LHGGVLFKTSTMAGFR the amyloid nucleation score was -0.501 ± 0.54. Work on LHIDGNENRFLHRDGKRQEA yielded an amyloid nucleation score of 0.245 ± 0.39. In the case of LHWFMVEDH, the amyloid nucleation score is reported as 0.19 ± 0.42. Work on LHYTYVSDCVCRMDTLLFGL yielded an amyloid nucleation score of -0.278 ± 0.45. Work on LIAKMAIKFKGDAQF yielded an amyloid nucleation score of 4.05 ± 0.09. Substance LIFEEQENAGGMASIMSSMV has an amyloid nucleation score of 0.463 ± 0.3. LIFRAVWVVMSHHLTG gave an amyloid nucleation score of 0.039 ± 0.42. Substance LIFYIVNHECINGRYALVGY has an amyloid nucleation score of 0.448 ± 0.62. With LIGCPLVDFTLYLCS the amyloid nucleation score was “inactive”. LIIDSGYPSGS gave an amyloid nucleation score of 0.458 ± 0.8. LIPVTGAMGSN gave an amyloid nucleation score of 0.183 ± 0.4. LIQFDTISSLYP showed an amyloid nucleation score of -0.271 ± 0.63. LITRGCCL gave an amyloid nucleation score of -0.33 ± 0.76. LITTSMYLWSVHSFVLHMDD showed an amyloid nucleation score of 0.545 ± 0.4. LIYPANDANNSTR showed an amyloid nucleation score of -0.616 ± 0.64. For LKATQLYGFYMTEKCVDSSW, the amyloid nucleation score was -0.549 ± 1. For LKDETN, the amyloid nucleation score was “inactive”. With LKNVLTCESVINQLR the amyloid nucleation score was -0.464 ± 0.39. With LKTGSF the amyloid nucleation score was “inactive”. For LKTQWQSPWVQMV, the amyloid nucleation score was -0.09 ± 0.48. Work on LKWVYLSSIALTFAPPRRLD yielded an amyloid nucleation score of 3.63 ± 0.069. With LLADAVMWFTMGSEDHDCY the amyloid nucleation score was -0.531 ± 0.44. With LLASRWPRYLNSWRKSHVKV the amyloid nucleation score was -0.133 ± 1. With LLCNWSPTLRHYFMRWDLGC the amyloid nucleation score was -0.901 ± 0.36. LLDACHLGNWTAGNGYYDRV gave an amyloid nucleation score of -0.531 ± 1.1. With LLDINSCRFDMVISDMDNCP the amyloid nucleation score was “inactive”. For LLDMYNYTGIF, the amyloid nucleation score was “inactive”. In the case of LLFLVCTSFNLDIQWNFALG, the amyloid nucleation score is reported as 4.76 ± 0.087. With LLFQVLPKMTSAPPSGWSTP the amyloid nucleation score was 0.547 ± 0.81. For LLGSYI, the amyloid nucleation score was “inactive”. LLGTFYTS showed an amyloid nucleation score of -1 ± 1.1. Work on LLHYGGSFLAAKFRRMGFTM yielded an amyloid nucleation score of -0.262 ± 0.56. LLHYGGSFLAAKFRRMSCNE gave an amyloid nucleation score of 0.811 ± 0.66. For LLINLVPFWLILRHDYLIKF, the amyloid nucleation score was 0.959 ± 0.74. With LLKVF the amyloid nucleation score was -1.01 ± 1.1. For LLLASAMWYGKLIRMRLLG, the amyloid nucleation score was 0.659 ± 0.48. LLLHSIQIYDMRR gave an amyloid nucleation score of 5.53 ± 0.089. In the case of LLLLMWALGLLENLTTLHGF, the amyloid nucleation score is reported as -0.257 ± 0.47. For LLLNNLVYFSLRVYLLNFCL, the amyloid nucleation score was -2.07 ± 0.62. In the case of LLLTNVKW, the amyloid nucleation score is reported as “inactive”. Substance LLMLVSFLIDDEAFSVFDLL has an amyloid nucleation score of 0.672 ± 0.39. In the case of LLRGRFGDSVSAVGFSGFCN, the amyloid nucleation score is reported as -0.502 ± 0.45. With LLSKFF the amyloid nucleation score was “inactive”. With LLSRPTGQLVVPSQGLHFCY the amyloid nucleation score was 0.242 ± 0.61. Work on LLSSLVFVVNFFAKGLRWLT yielded an amyloid nucleation score of -1.9 ± 0.62. With LLVKF the amyloid nucleation score was 0.641 ± 0.74. LLVRTYKLMMFHSLGIG showed an amyloid nucleation score of -0.583 ± 1. In the case of LLYIDLVVHVFQSGSSGRLL, the amyloid nucleation score is reported as 2.79 ± 0.083. Work on LLYNGVILLECGWYMVSVAS yielded an amyloid nucleation score of -0.071 ± 0.29. Substance LMFCTRFSLYTGSWFWSSVT has an amyloid nucleation score of 1.57 ± 0.18. In the case of LMFWGCSGLRWLVVLSDNKA, the amyloid nucleation score is reported as 3.8 ± 0.097. LMHSQCSFSNELYVDSEARG showed an amyloid nucleation score of 0.093 ± 0.38. Work on LMHWV yielded an amyloid nucleation score of -0.94 ± 0.38. Substance LMKNEFSRYHTSCVVRGNSL has an amyloid nucleation score of 0.334 ± 0.28. In the case of LMRFSDVDY, the amyloid nucleation score is reported as “inactive”. For LMSIVVKVVDSTIIIKCVFS, the amyloid nucleation score was -0.667 ± 0.76. LMTPVNSILLRLWCSIFLCF gave an amyloid nucleation score of 3.26 ± 0.12. For LMYCI, the amyloid nucleation score was -0.211 ± 0.76. LNFGMY showed an amyloid nucleation score of -0.772 ± 0.78. Substance LNGLDPSNAHMIYYLYTSYL has an amyloid nucleation score of -1.25 ± 0.54. Work on LNICDLRPLV yielded an amyloid nucleation score of -0.93 ± 0.76. LNISYSAH gave an amyloid nucleation score of 0.264 ± 0.65. Work on LNLLNPWYSCKQSRVYNGYI yielded an amyloid nucleation score of -1.31 ± 0.54. Work on LNMVMLICNLWDVPHPRYLP yielded an amyloid nucleation score of 5.14 ± 0.052. With LNNRLVFSKVHGCRICNRRS the amyloid nucleation score was “inactive”. LNTMPRK showed an amyloid nucleation score of 0.004 ± 1.1. LNVDGDRAGVYIVKVHDPVR gave an amyloid nucleation score of 0.027 ± 0.74. Substance LNVLKNT has an amyloid nucleation score of 0.187 ± 0.24. LNWFFLL showed an amyloid nucleation score of 0.937 ± 0.26.

— the supplement of paper PMC12042874
